The source of these data is patent US20110229461A1 (UCB, published 2011).

B1: 949 VK1 gL15 gH20a (antibody, V domains shown)
VH: EVQLVQSGAEVKKPGASVKVSCKAFGYTFTTYPIEWVRQAPGQGLEWMGNFHPYNDDTKYNEKFKGRVTMTRDTSTSTVYMELSSLRSEDTAVYYCARENYGSHGGFVYWGQGTLVTVS
VL: ENVLTQSPFSLSASVGDRVTITCRASSSVISSYLHWYQQKPAKAPKLFIYSTSNLASGVPSRFSGSGSGTDYTLTISSLQPEDFATYYCQQYNSYPLTFGGGTKVEIK
notes: Humanised; human kappa constant (Km3); also called Transient #4
B2: 949 VK1 gL15 gH8b (antibody, V domains shown)
VH: B1 VH with A16S, V37M, P41H, M48I, M70I, R72A, T74K, V79A
VL: B1 VL
notes: Humanised; human kappa constant (Km3); also called Transient #3
B3: 949 VK1 gL9 gH20b (antibody, V domains shown)
VH: B1 VH with A16S, F25S, M70I, R72A, T74K, V79A
VL: B1 VL with S94G
notes: Humanised; human kappa constant (Km3); also called Transient #1
B4: 949 VK1 gL15 gH20b (antibody, V domains shown)
VH: B1 VH with A16S, F25S, M70I, R72A, T74K, V79A
VL: B1 VL
notes: Humanised; also called Transient #5
B5: 949 VK1 gL15 gH8a (antibody, V domains shown)
VH: B1 VH with V37M, P41H, M48I
VL: B1 VL
notes: Humanised; human kappa constant (Km3); also called Transient #2
B6: 949 VK1 gL9 gH8a (antibody, V domains shown)
VH: B1 VH with V37M, P41H, M48I
VL: B1 VL with S94G
notes: Humanised; human kappa constant (Km3)
B7: 949 VK1 gL9 gH8b (antibody, V domains shown)
VH: B1 VH with A16S, V37M, P41H, M48I, M70I, R72A, T74K, V79A
VL: B1 VL with S94G
notes: as for B6
B8: 949 VK3 gL1 gH1a (antibody, V domains shown)
VH: B1 VH with V37M, P41H, M48I, R72V, T74K, S77T
VL: ENVLTQSPGTLSLSPGERATLSCRASSSVISSYLHWYQQKPGQAPRLWIYSTSNLASGVPDRFSGSGSGTSYTLTISRLEPEDFATYYCQQYNGYPLTFGGGTKVEIK
notes: as for B6
B9: 949 VK1 gL1 gH1a (antibody, V domains shown)
VH: B1 VH with V37M, P41H, M48I, R72V, T74K, S77T
VL: B1 VL with F48W, S61D, D71S, S94G
notes: Humanised; human kappa constant (Km3); Heavy V regions were cloned into gamma-4P (S241P), gamma-4P delta Lys and gamma-1 delta Lys vectors
B10: 949 VK1 gL9 gH20a (antibody, V domains shown)
VH: B1 VH
VL: B1 VL with S94G
notes: as for B6
B11: 949 VK1 gL12 gH8b (antibody, V domains shown)
VH: B1 VH with A16S, V37M, P41H, M48I, M70I, R72A, T74K, V79A
VL: B1 VL with L4M, S94G
notes: as for B6
B12: 949 VK1 gL12 gH20b (antibody, V domains shown)
VH: B1 VH with A16S, F25S, M70I, R72A, T74K, V79A
VL: B1 VL with L4M, S94G
notes: as for B6
B13: 949 VK1 gL12 gH8a (antibody, V domains shown)
VH: B1 VH with V37M, P41H, M48I
VL: B1 VL with L4M, S94G
notes: as for B6
B14: 949 VK3 gL11 gH1a (antibody, V domains shown)
VH: B1 VH with V37M, P41H, M48I, R72V, T74K, S77T
VL: B8 VL with G94S
notes: as for B6
B15: 949 VK1 gL12 gH20a (antibody, V domains shown)
VH: B1 VH
VL: B1 VL with L4M, S94G
notes: as for B6
B16: 949 VK3 gL1 gH1b (antibody, V domains shown)
VH: B1 VH with A16S, V37M, P41H, M48I, M70I, R72V, T74K, S77T
VL: B8 VL
notes: as for B6
B17: 949 VK1 gL14 gH8a (antibody, V domains shown)
VH: B1 VH with V37M, P41H, M48I
VL: B1 VL with L4M
notes: as for B6
B18: 949 VK1 gL1 gH1b (antibody, V domains shown)
VH: B1 VH with A16S, V37M, P41H, M48I, M70I, R72V, T74K, S77T
VL: B1 VL with F48W, S61D, D71S, S94G
notes: as for B6
B19: 949 VK1 gL11 gH1a (antibody, V domains shown)
VH: B1 VH with V37M, P41H, M48I, R72V, T74K, S77T
VL: B1 VL with F48W, S61D, D71S
notes: as for B6
B20: 949 VK1 gL14 gH8b (antibody, V domains shown)
VH: B1 VH with A16S, V37M, P41H, M48I, M70I, R72A, T74K, V79A
VL: B1 VL with L4M
notes: as for B6
B21: antibody CA051-00949 (949), parental variable regions, murine IgG1 (antibody, V domains shown)
VH: QVQLQQSGAELVKPGASVKMSCKAFGYTFTTYPIEWMKQNHGKSLEWIGNFHPYNDDTKYNEKFKGKAKLTVEKSSTTVYLELSRLTSDDSAVYYCARENYGSHGGFVYWGQGTLVTVS
VL: ENVLTQSPAIMSASPGEKVTMTCRASSSVISSYLHWYQQKSGASPKLWIYSTSNLASGVPDRFSGSGSGTSYSLTISSVEAEDAATYYCQQYNGYPLTFGAGTKLEIK
notes: also called Clone 19
B22: 949 chimeric (949 variable regions with human IgG4 constant domains) (antibody, V domains shown)
VH: B21 VH
VL: B21 VL
notes: also called original CA949 construct, cLcH

Numbering of substitutions follows the chain as printed. In names and notes the source's numbering stands.

As a reminder, the EC50 is the concentration that produces a half-maximal response. Read a low EC50 as higher potency in that assay. The Kd is the constant that tells how readily two partners part at equilibrium. Broadly, the koff is a measure of how fast the partners let go of each other. What is called kon is a measure of how fast the partners come together.

T1 sequence (Q15116 25-288): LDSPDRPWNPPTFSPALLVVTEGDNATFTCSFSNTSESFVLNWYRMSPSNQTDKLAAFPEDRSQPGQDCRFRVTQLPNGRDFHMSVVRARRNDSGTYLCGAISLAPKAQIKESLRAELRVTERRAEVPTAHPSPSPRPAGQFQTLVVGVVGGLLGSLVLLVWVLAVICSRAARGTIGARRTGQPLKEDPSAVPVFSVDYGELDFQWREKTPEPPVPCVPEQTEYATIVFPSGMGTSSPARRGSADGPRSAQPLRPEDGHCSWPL
T2 sequence (Q15116 25-170): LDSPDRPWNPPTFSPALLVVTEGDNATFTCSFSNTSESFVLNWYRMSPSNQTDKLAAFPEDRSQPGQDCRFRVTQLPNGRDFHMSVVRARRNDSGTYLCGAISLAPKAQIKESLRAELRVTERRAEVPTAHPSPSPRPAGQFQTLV

One assay addresses T1, human PD-1 on cells (transfected HEK293 cells; human T cells) (human, UniProt Q15116 25-288).
T1 construct: whole, on cells; HEK293 cells transiently transfected with human PD-1 DNA; also called PD-1 expressing HEK293 cells; PD-1 transfected HEK cells
Briefly: flow cytometry on activated human T cells.
In turn, B1 yielded an EC50 of 2.89 µg/mL.

For B2, the EC50 came to 6.09 µg/mL.

B3 displayed an EC50 of 1.14 µg/mL. Compared with the last molecule, the EC50 is about 5.3-fold lower.

With B4, a half-maximal effect (EC50) was put at 4.1 µg/mL.

On to B5, for which the response was half-maximal at 3.15 µg/mL (EC50).

The next assay concerns the target T2, human PD-1 (recombinant, titrated in BIAcore) (human, UniProt Q15116 25-170).
T2 construct: extracellular domain; also called recombinant human PD-1 extracellular domain
The experiment in a line: SPR BIAcore 3000; antibody captured by anti-human Fc, human PD-1 titrated.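 Further: CM5 chip with amine-coupled goat anti-human Fc F(ab′)₂, HBS-EP running buffer at 10 µL/min, blank-surface-subtracted sensorgrams fitted in BIAevaluation 3.2 for kinetic constants.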 Background: In SPR one partner is held on a chip, and binding of the other changes the refractive index at the surface.
For B6, the Kd worked out at 2.35 nM.

On to B7, for which the Kd is 2.34 nM.

For the molecule B8, the Kd is 4.02 nM, the koff was 0.000844 s⁻¹ and the kon worked out at 210000 M⁻¹ s⁻¹.

As to B9, the Kd stood at 3.71 nM, the koff was 0.000782 s⁻¹ and the kon stood at 211000 M⁻¹ s⁻¹.

For B10, the Kd was 3.17 nM.

Take B11: the Kd was determined as 2.77 nM.

On to B12, for which the Kd amounted to 3.8 nM.

On to B13, for which the Kd came out at 2.46 nM.

Take B14: the Kd stood at 4.89 nM, the koff stood at 0.00109 s⁻¹ and the kon worked out at 223000 M⁻¹ s⁻¹.

As for B15, the Kd stood at 3.38 nM.

On to B16, for which the Kd came to 3.14 nM, the koff came to 0.00065 s⁻¹ and the kon worked out at 207000 M⁻¹ s⁻¹.

Regarding B17, the Kd turned out to be 4.75 nM.

B18: the dissociation constant (Kd) worked out at 2.92 nM, the koff was determined as 0.000556 s⁻¹ and the kon is 191000 M⁻¹ s⁻¹.

Regarding B3, the Kd is 2.66 nM.

Turning to B19, the Kd turned out to be 5.54 nM, the koff amounted to 0.00115 s⁻¹ and the kon stood at 207000 M⁻¹ s⁻¹.

For B20, the Kd was found to be 4.38 nM.

On to B21, for which the Kd stood at 5.07 nM.

Take B22: the Kd turned out to be 5.98 nM.

For the next assay, the target named is T1, human PD-1 on cells (transfected HEK293 …). Briefly: flow cytometry on activated human T cells; unconstrained curve; unconstrained curve. A general note: Flow cytometry measures light scatter and fluorescence of single cells or particles in a stream.
Take B22: the response was half-maximal at 1.2 µg/mL (EC50).

For the next assay the target is unchanged. Briefly: flow cytometry on activated human T cells; top of curve constrained; top part of curve constrained to ~45 geo mean.
On to B22, for which the response was half-maximal at 3.61 µg/mL (EC50).
